Results published in patent US20080267971A1.
Blank lines part the entries; values can stand above or below the binder they belong to.

Experiments:
[1] = molecular target: human Ang-2 changed at positions 365 and 367 (human) (UniProt O15123); assay: ELISA
[2] = molecular target: human Angiopoietin-2 (human) (UniProt O15123); assay: inhibition of rhAng-2 binding to its receptor
[3] = molecular target: Mouse/Human Ang-2 StuI chimeric molecule (mouse; human) (UniProt O35608); assay: ELISA
[4] = molecular target: human Ang-2443 (human) (UniProt O15123); assay: ELISA
[5] = molecular target: human Ang-2 H375Q (human) (UniProt O15123); assay: ELISA
[6] = molecular target: T1, Human Ang-1/2 BsmI chimeric molecule (human); assay: ELISA
T1 sequence: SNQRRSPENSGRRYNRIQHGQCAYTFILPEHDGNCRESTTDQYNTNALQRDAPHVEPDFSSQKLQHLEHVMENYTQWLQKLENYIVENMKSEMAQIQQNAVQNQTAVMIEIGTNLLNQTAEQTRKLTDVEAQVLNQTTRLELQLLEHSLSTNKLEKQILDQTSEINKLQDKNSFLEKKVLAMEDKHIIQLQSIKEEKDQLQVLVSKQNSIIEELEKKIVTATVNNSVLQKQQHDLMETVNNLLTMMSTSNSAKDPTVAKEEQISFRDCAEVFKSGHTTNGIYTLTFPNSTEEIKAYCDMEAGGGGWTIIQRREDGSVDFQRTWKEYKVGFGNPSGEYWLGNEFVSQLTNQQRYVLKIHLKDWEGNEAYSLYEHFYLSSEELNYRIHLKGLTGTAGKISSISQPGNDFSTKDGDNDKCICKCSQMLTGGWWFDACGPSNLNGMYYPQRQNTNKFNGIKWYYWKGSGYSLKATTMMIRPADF

[7] = molecular target: human Ang-2 V345M (human) (UniProt O15123); assay: ELISA
[8] = molecular target: Mouse/Human chimeric Ang-2 with the human StuI-TfiI fragment (mouse/human chimera) (UniProt O35608); assay: ELISA
[9] = molecular target: mouse Angiopoietin-2 (mouse) (UniProt O35608); assay: ELISA; member tied by Table 16

B1: mAb 5.28.1 (antibody, V domains shown)
VH: EVQLVESGGIVVQPGGSLRLSCAASGFTFDDYTMHWVRQTPGKGLEWVSLISWDGGSTYYADSVKGRFTISRDNSKNSLYLQMNSLRTEDTALYYCAKDIDIAVAGTGFDHWGQGTLVTVSS
VL: EIVMTQSPATLSVSPGERATLSCRASQSVTSNLAWYQQKPGQAPRLLIYGALIRATGIPARFSGSGSGTEFTLTISSLQSEDFAVYYCQQYNNWPFTFGPGTKVDIKR
% of binding to human Ang-2 [1]: 100%

B2: mAb 5.2.1 (antibody, part only; not given: light chain, V domains shown, part only)
VH: QVQLVESGGGVVQPGRSLRLSCAASGFTFSSYGMHWVRQAPGKGLEWVAVIWFDGFNKYYADSVKGRFTISRDNSKNTLYLQMNSLRAEDTAVYHCARDRGYSGYDHYYGMDVWGQGTTVTVSSA
OD650 in inhibition assay [2]: 0.069 OD650
% of binding to human Ang-2 [3]: 100%
% of binding to human Ang-2 [4]: 100%
% of binding to human Ang-2 [5]: 100%
% of binding to human Ang-2 [6]: 100%
% of binding to human Ang-2 [7]: 100%
% of binding to human Ang-2 [8]: 100%
% of binding to human Ang-2 [1]: 100%
% of immunoreactivity on human Ang-2 [9]: 100%

B4: mAb 5.39.1 (antibody, V domains shown)
VH: QVQLVQSGAEVTKPGASVKVSCKASGYTFTAYHMYWVRQAPGQGLEWMGWINPNSGGTNYAQKFQGRVTMTRDTSISTAYMELSRLRSDDSPVYYCARDQGIAAAGPFDYWGQGTLVTVSS
VL: EIVMTQSPATLSVSPGDRATLSCRASQSVSSNFAWYQQKPGQAPRLLIYGSSTRATGIPARFSGSGSGTEFTLTISSLQSEDFAVYYCQQYHYWWTFGQGTKVEFKR
% of binding to human Ang-2 [1]: 100%

B5: mAb 3.3.2 (antibody, V domains shown)
VH: EVQLVESGGGLVQPGGSLRLSCAVSGFTFSSYWMSWVRQAPGKGLEWVANIKQDGSEKYYVDSVKGRFTISRDNAKNSLYLQMNSLRAEDTAVYYCARDQGIAVAGPFDYWGQGTLVTVSS
VL: EIVMTQSPATLSVSPGERATLSCRASQTVSSDLAWYQQKPGQAPRLLIYGASIRATGIPARFSGSGSGTEFTLTISSLQSEDFAVYSCQQYYNWWTFGQGTKVEIKR
% of binding to human Ang-2 [1]: 100%

B8: mAb 5.62.1 (antibody, V domains shown)
VH: EVQLVESGGGLVQPGGSLRLSCAASGFTFSSYWMSWVRQAPGKGLEWVANIKQDGSEKYYVDSVKGRFTISRDNAKNSLYLQMNSLRAEDTAVYYCARDPGIAVAGPFDYWGQGTLVTVSS
VL: EIVMTQSPATLSVSPGERATLSCRASQSVSSNLAWYQQKPGQAPRLLIYGAFTRATGIPARFSGSGSGTEFTLTISSLQSEDFAVYYCQQYNHWWTFGQGTKVGIKR
% of binding to human Ang-2 [1]: 100%

B9: mAb 3.28.1 (antibody, part only; not given: light chain, V domains shown, part only)
VH: EVQLVESGGGLVQPGGSLRLSCAASGFTFSSSWMSWVRQAPGKGLEWVANIKQDGSDKYYVDSVKGRFTISRDNAKNSLYLQMNSLRAEDTAVYYCVRDKGSGWFDYWGQGTLVTVSSA
OD650 in inhibition assay [2]: 0.0588 OD650
% of binding to human Ang-2 [3]: 100%
% of binding to human Ang-2 [4]: 100%
% of binding to human Ang-2 [5]: 100%
% of binding to human Ang-2 [6]: 100%
% of binding to human Ang-2 [7]: 100%
% of binding to human Ang-2 [8]: 31%
% of binding to human Ang-2 [1]: 100%

Other lines, results leading:

% of binding to human Ang-2 [1]: 100%
B3: mAb 6.3.1 (antibody, V domains shown)
VH: QVQLVQSGAEVKKPGASVKVSCKASGYTFTGYFMHWVPQAPGQGLEWMGWINPNSGGTNYAQNFQGRVTMTRDTSISTAYMELSRLRSDDTPVYYCARDPWQNWNSYFDYWGQGTLVTVSS
VL: DIQMTQSPSSLSASVGDRVTITCRASQSIRSYLNWYQQKPGKAPKVLIYAASSLQSGVPSRFSGSGSGTDFTLTISSLQPEDFATYYCQQSYSTLCSFGQGTKLEIKR

% of binding to human Ang-2 [1]: 100%
B6: mAb 5.86.1 (antibody, V domains shown)
VH: QVQLVQSGAEVKKPGASVKVSCKASGYTFTGYHMYWVRQAPGQGLEWLGWINPNSGGTNYAQKFQGRVTMTRDTSISTAYMELSRLRSDDTAVYYCVRDQGIAAAGPFDYWCQGTLVTVSS
VL: DIRMTQSPSSLSASVGDRVTITCRASQRISTYLNWYQQKPGKAPKFLIYAASSLQSGVPSRFSGSGSGTDFTLTISSLQPEDFATYYCQQSYTTPFTFGPGTKVDIKR

% of binding to human Ang-2 [1]: 100%
B7: mAb 5.88.3 (antibody, V domains shown)
VH: EVQMVESGGGLVQPGGSLRLSCAASGFTLRSYWMSWVRQAPGKGLEWVANIKEDGSEKYHVDSVKGRFTISRDNAENSLFLQMSSLRAEDTAVYYCARDMEASAGLFDYWGQGTLVTVSS
VL: EIVMTQSPATLSVSPGERAILSCRASQSISSNLAWYQQKPGQAPRLLIYGASTRATGIPARFSGSGSGTEFTLTISSLQSEDFAVYYCQQYNYWWTFGQGTKVEIKR
